Source: PMC7367873, “Dissecting the sequence determinants for dephosphorylation by the catalytic subunits of phosphatases PP1 and PP2A” (Nature Communications, 2020)
One block for each molecule: values may come before it.

How the values were obtained:
GFP-14-3-3β = GFP-14-3-3β co-IP with LC-MS/MS, untreated GFP-14-3-3β versus GFP control (14-3-3 interactome); format: binding, human; conditions: untreated vs GFP; label-free quantification
[1] = tested on: GFP-14-3-3β and its binding proteins; experiment: GFP-14-3-3β co-IP with LC-MS/MS label-free quantification, untreated versus PP1c-treated; parameters: species or system human; conditions: PP1 vs untreated; label-free quantification

B2: HACD3 (protein, UniProt Q9P035 1-362, looked up)
Very-long-chain …: MENQVLTPHVYWAQRHRELYLRVELSDVQNPAISITENVLHFKAQGHGAKGDNVYEFHLEFLDLVKPEPVYKLTQRQVNITVQKKVSQWWERLTKQEKRPLFLAPDFDRWLDESDAEMELRAKEEERLNKLRLESEGSPETLTNLRKGYLFMYNLVQFLGFSWIFVNLTVRFCILGKESFYDTFHTVADMMYFCQMLAVVETINAAIGVTTSPVLPSLIQLLGRNFILFIIFGTMEEMQNKAVVFFVFYLWSAIEIFRYSFYMLTCIDMDWKVLTWLRYTLWIPLYPLGCLAEAVSVIQSIPIFNETGRFSFTLPYPVKIKVRFSFFLQIYLIMIFLGLYINFRHLYKQRRRRYGQKKKKIH
- Difference (log2), untreated vs GFP (GFP-14-3-3β): -0.3489 log2
- Difference (log2), PP1 vs untreated [1]: 0.9389 log2

B5: G3BP2 (protein, UniProt Q9UN86 2-482, looked up)
Ras GTPase-activating …: VMEKPSPLLVGREFVRQYYTLLNKAPEYLHRFYGRNSSYVHGGVDASGKPQEAVYGQNDIHHKVLSLNFSECHTKIRHVDAHATLSDGVVVQVMGLLSNSGQPERKFMQTFVLAPEGSVPNKFYVHNDMFRYEDEVFGDSEPELDEESEDEVEEEQEERQPSPEPVQENANSGYYEAHPVTNGIEEPLEESSHEPEPEPESETKTEELKPQVEEKNLEELEEKSTTPPPAEPVSLPQEPPKAFSWASVTSKNLPPSGTVSSSGIPPHVKAPVSQPRVEAKPEVQSQPPRVREQRPRERPGFPPRGPRPGRGDMEQNDSDNRRIIRYPDSHQLFVGNLPHDIDENELKEFFMSFGNVVELRINTKGVGGKLPNFGFVVFDDSEPVQRILIAKPIMFRGEVRLNVEEKKTRAARERETRGGGDDRRDIRRNDRGPGGPRGIVGGGMMRDRDGRGPPPRGGMAQKLGSGRGTGQMEGRFTGQRR
- Difference (log2), untreated vs GFP (GFP-14-3-3β): 0.002451 log2
- Difference (log2), PP1 vs untreated [1]: 0.991 log2

B7: MGST1 (protein, UniProt P10620 1-155, looked up)
Microsomal glutathione …: MVDLTQVMDDEVFMAFASYATIILSKMMLMSTATAFYRLTRKVFANPEDCVAFGKGENAKKYLRTDDRVERVRRAHLNDLENIIPFLGIGLLYSLSGPDPSTAILHFRLFVGARIYHTIAYLTPLPQPNRALSFFVGYGVTLSMAYRLLKSKLYL
- Difference (log2), untreated vs GFP (GFP-14-3-3β): 1.613 log2
- Difference (log2), PP1 vs untreated [1]: 1.003 log2

B8: ALDH18A1 (protein, UniProt P54886 1-795, looked up)
Delta-1-pyrroline-5-carboxylat …: MLSQVYRCGFQPFNQHLLPWVKCTTVFRSHCIQPSVIRHVRSWSNIPFITVPLSRTHGKSFAHRSELKHAKRIVVKLGSAVVTRGDECGLALGRLASIVEQVSVLQNQGREMMLVTSGAVAFGKQRLRHEILLSQSVRQALHSGQNQLKEMAIPVLEARACAAAGQSGLMALYEAMFTQYSICAAQILVTNLDFHDEQKRRNLNGTLHELLRMNIVPIVNTNDAVVPPAEPNSDLQGVNVISVKDNDSLAARLAVEMKTDLLIVLSDVEGLFDSPPGSDDAKLIDIFYPGDQQSVTFGTKSRVGMGGMEAKVKAALWALQGGTSVVIANGTHPKVSGHVITDIVEGKKVGTFFSEVKPAGPTVEQQGEMARSGGRMLATLEPEQRAEIIHHLADLLTDQRDEILLANKKDLEEAEGRLAAPLLKRLSLSTSKLNSLAIGLRQIAASSQDSVGRVLRRTRIAKNLELEQVTVPIGVLLVIFESRPDCLPQVAALAIASGNGLLLKGGKEAAHSNRILHLLTQEALSIHGVKEAVQLVNTREEVEDLCRLDKMIDLIIPRGSSQLVRDIQKAAKGIPVMGHSEGICHMYVDSEASVDKVTRLVRDSKCEYPAACNALETLLIHRDLLRTPLFDQIIDMLRVEQVKIHAGPKFASYLTFSPSEVKSLRTEYGDLELCIEVVDNVQDAIDHIHKYGSSHTDVIVTEDENTAEFFLQHVDSACVFWNASTRFSDGYRFGLGAEVGISTSRIHARGPVGLEGLLTTKWLLRGKDHVVSDFSEHGSLKYLHENLPIPQRNTN
- Difference (log2), untreated vs GFP (GFP-14-3-3β): -0.8261 log2
- Difference (log2), PP1 vs untreated [1]: 0.9496 log2

B9: ABCG2 (protein, UniProt Q9UNQ0 1-655, looked up)
Broad substrate specificity …: MSSSNVEVFIPVSQGNTNGFPATASNDLKAFTEGAVLSFHNICYRVKLKSGFLPCRKPVEKEILSNINGIMKPGLNAILGPTGGGKSSLLDVLAARKDPSGLSGDVLINGAPRPANFKCNSGYVVQDDVVMGTLTVRENLQFSAALRLATTMTNHEKNERINRVIQELGLDKVADSKVGTQFIRGVSGGERKRTSIGMELITDPSILFLDEPTTGLDSSTANAVLLLLKRMSKQGRTIIFSIHQPRYSIFKLFDSLTLLASGRLMFHGPAQEALGYFESAGYHCEAYNNPADFFLDIINGDSTAVALNREEDFKATEIIEPSKQDKPLIEKLAEIYVNSSFYKETKAELHQLSGGEKKKKITVFKEISYTTSFCHQLRWVSKRSFKNLLGNPQASIAQIIVTVVLGLVIGAIYFGLKNDSTGIQNRAGVLFFLTTNQCFSSVSAVELFVVEKKLFIHEYISGYYRVSSYFLGKLLSDLLPMRMLPSIIFTCIVYFMLGLKPKADAFFVMMFTLMMVAYSASSMALAIAAGQSVVSVATLLMTICFVFMMIFSGLLVNLTTIASWLSWLQYFSIPRYGFTALQHNEFLGQNFCPGLNATGNNPCNYATCTGEEYLVKQGIDLSPWGLWKNHVALACMIVIFLTIAYLKLLFLKKYS
- Difference (log2), untreated vs GFP (GFP-14-3-3β): -0.7786 log2
- Difference (log2), PP1 vs untreated [1]: 0.9597 log2

Now from value to molecule, other results behind:

- Difference (log2), PP1 vs untreated [1]: 1.03 log2
B1: SERBP1 (protein, UniProt Q8NC51 2-408, looked up)
SERPINE1 mRNA-binding protein …: PGHLQEGFGCVVTNRFDQLFDDESDPFEVLKAAENKKKEAGGGGVGGPGAKSAAQAAAQTNSNAAGKQLRKESQKDRKNPLPPSVGVVDKKEETQPPVALKKEGIRRVGRRPDQQLQGEGKIIDRRPERRPPRERRFEKPLEEKGEGGEFSVDRPIIDRPIRGRGGLGRGRGGRGRGMGRGDGFDSRGKREFDRHSGSDRSSFSHYSGLKHEDKRGGSGSHNWGTVKDELTESPKYIQKQISYNYSDLDQSNVTEETPEGEEHHPVADTENKENEVEEVKEEGPKEMTLDEWKAIQNKDRAKVEFNIRKPNEGADGQWKKGFVLHKSKSEEAHAEDSVMDHHFRKPANDITSQLEINFGDLGRPGRGGRGGRGGRGRGGRPNRGSRTDKSSASAPDVDDPEAFPALA
- Difference (log2), untreated vs GFP (GFP-14-3-3β): -0.2637 log2

- Difference (log2), PP1 vs untreated [1]: 1.025 log2
B3: SLC25A3 (protein, UniProt Q00325 50-362, looked up)
Solute carrier family 25 …: AVEEQYSCDYGSGRFFILCGLGGIISCGTTHTALVPLDLVKCRMQVDPQKYKGIFNGFSVTLKEDGVRGLAKGWAPTFLGYSMQGLCKFGFYEVFKVLYSNMLGEENTYLWRTSLYLAASASAEFFADIALAPMEAAKVRIQTQPGYANTLRDAAPKMYKEEGLKAFYKGVAPLWMRQIPYTMMKFACFERTVEALYKFVVPKPRSECSKPEQLVVTFVAGYIAGVFCAIVSHPADSVVSVLNKEKGSSASLVLKRLGFKGVWKGLFARIIMIGTLTALQWFIYDSVKVYFRLPRPPPPEMPESLKKKLGLTQ
- Difference (log2), untreated vs GFP (GFP-14-3-3β): 1.257 log2

- Difference (log2), PP1 vs untreated [1]: 0.9341 log2
B4: TOMM22 (protein, UniProt Q9NS69 2-142, looked up)
Mitochondrial import receptor …: AAAVAAAGAGEPQSPDELLPKGDAEKPEEELEEDDDEELDETLSERLWGLTEMFPERVRSAAGATFDLSLFVAQKMYRFSRAALWIGTTSFMILVLPVVFETEKLQMEQQQQLQQRQILLGPNTGLSGGMPGALPSLPGKI
- Difference (log2), untreated vs GFP (GFP-14-3-3β): -0.3585 log2

- Difference (log2), PP1 vs untreated [1]: 1.025 log2
B6: ZC3HAV1 (protein, UniProt Q7Z2W4 2-902, looked up)
Zinc finger CCCH-type …: ADPEVCCFITKILCAHGGRMALDALLQEIALSEPQLCEVLQVAGPDRFVVLETGGEAGITRSVVATTRARVCRRKYCQRPCDNLHLCKLNLLGRCNYSQSERNLCKYSHEVLSEENFKVLKNHELSGLNKEELAVLLLQSDPFFMPEICKSYKGEGRQQICNQQPPCSRLHICDHFTRGNCRFPNCLRSHNLMDRKVLAIMREHGLNPDVVQNIQDICNSKHMQKNPPGPRAPSSHRRNMAYRARSKSRDRFFQGSQEFLASASASAERSCTPSPDQISHRASLEDAPVDDLTRKFTYLGSQDRARPPSGSSKATDLGGTSQAGTSQRFLENGSQEDLLHGNPGSTYLASNSTSAPNWKSLTSWTNDQGARRKTVFSPTLPAARSSLGSLQTPEAVTTRKGTGLLSSDYRIINGKSGTQDIQPGPLFNNNADGVATDITSTRSLNYKSTSSGHREISSPRIQDAGPASRDVQATGRIADDADPRVALVNDSLSDVTSTTSSRVDDHDSEEICLDHLCKGCPLNGSCSKVHFHLPYRWQMLIGKTWTDFEHMETIEKGYCNPGIHLCSVGSYTINFRVMSCDSFPIRRLSTPSSVTKPANSVFTTKWIWYWKNESGTWIQYGEEKDKRKNSNVDSSYLESLYQSCPRGVVPFQAGSRNYELSFQGMIQTNIASKTQKDVIRRPTFVPQWYVQQMKRGPDHQPAKTSSVSLTATFRPQEDFCFLSSKKYKLSEIHHLHPEYVRVSEHFKASMKNFKIEKIKKIENSELLDKFTWKKSQMKEEGKLLFYATSRAYVESICSNNFDSFLHETHENKYGKGIYFAKDAIYSHKNCPYDAKNVVMFVAQVLVGKFTEGNITYTSPPPQFDSCVDTRSNPSVFVIFQKDQVYPQYVIEYTEDKACVIS
- Difference (log2), untreated vs GFP (GFP-14-3-3β): -0.3627 log2

- Difference (log2), PP1 vs untreated [1]: 1.002 log2
B10: RPN1 (protein, UniProt P04843 24-607, looked up)
Dolichyl-diphosphooligosacchar …: ASSEAPPLINEDVKRTVDLSSHLAKVTAEVVLAHLGGGSTSRATSFLLALEPELEARLAHLGVQVKGEDEEENNLEVRETKIKGKSGRFFTVKLPVALDPGAKISVIVETVYTHVLHPYPTQITQSEKQFVVFEGNHYFYSPYPTKTQTMRVKLASRNVESYTKLGNPTRSEDLLDYGPFRDVPAYSQDTFKVHYENNSPFLTITSMTRVIEVSHWGNIAVEENVDLKHTGAVLKGPFSRYDYQRQPDSGISSIRSFKTILPAAAQDVYYRDEIGNVSTSHLLILDDSVEMEIRPRFPLFGGWKTHYIVGYNLPSYEYLYNLGDQYALKMRFVDHVFDEQVIDSLTVKIILPEGAKNIEIDSPYEISRAPDELHYTYLDTFGRPVIVAYKKNLVEQHIQDIVVHYTFNKVLMLQEPLLVVAAFYILFFTVIIYVRLDFSITKDPAAEARMKVACITEQVLTLVNKRIGLYRHFDETVNRYKQSRDISTLNSGKKSLETEHKALTSEIALLQSRLKTEGSDLCDRVSEMQKLDAQVKELVLKSAVEAERLVAGKLKKDTYIENEKLISGKRQELVTKIDHILDAL
- Difference (log2), untreated vs GFP (GFP-14-3-3β): 0.04558 log2

- Difference (log2), PP1 vs untreated [1]: 1.045 log2
B11: YTHDF2 (protein, UniProt Q9Y5A9 2-579, looked up)
YTH domain-containing family …: SASSLLEQRPKGQGNKVQNGSVHQKDGLNDDDFEPYLSPQARPNNAYTAMSDSYLPSYYSPSIGFSYSLGEAAWSTGGDTAMPYLTSYGQLSNGEPHFLPDAMFGQPGALGSTPFLGQHGFNFFPSGIDFSAWGNNSSQGQSTQSSGYSSNYAYAPSSLGGAMIDGQSAFANETLNKAPGMNTIDQGMAALKLGSTEVASNVPKVVGSAVGSGSITSNIVASNSLPPATIAPPKPASWADIASKPAKQQPKLKTKNGIAGSSLPPPPIKHNMDIGTWDNKGPVAKAPSQALVQNIGQPTQGSPQPVGQQANNSPPVAQASVGQQTQPLPPPPPQPAQLSVQQQAAQPTRWVAPRNRGSGFGHNGVDGNGVGQSQAGSGSTPSEPHPVLEKLRSINNYNPKDFDWNLKHGRVFIIKSYSEDDIHRSIKYNIWCSTEHGNKRLDAAYRSMNGKGPVYLLFSVNGSGHFCGVAEMKSAVDYNTCAGVWSQDKWKGRFDVRWIFVKDVPNSQLRHIRLENNENKPVTNSRDTQEVPLEKAKQVLKIIASYKHTTSIFDDFSHYEKRQEEEESVKKERQGRGK
- Difference (log2), untreated vs GFP (GFP-14-3-3β): 1.029 log2
